Laboratory results as given in US20030092037A1, “Elk1 phosphorylation related gene” (priority 2001, published 2003).

B1: 18 (protein, listed as Homo sapiens)
chain: MPVQLSEHPEWNESMHSLRISVGGLPVLASMTKAADPRFRPRWKVILTFFVGAAILWLLCSHRPAPGRPPTHNAHNWRLGQAPANWYNDTYPLSPPQRTPAGIRYRIAVIADLDTESRAQEENTWFSYLKKGYLTLSDSGDKVAVEWDKDHGVLESHLAEKGRGMELSDLIVFNGKLYSVDDRTGVVYQIEGSKAVPWVILSDGDGTVEKGFKAEWLAVREIVRKRWRLVKQVSHVGVLGQWIQR
B2: 12 (protein, listed as Homo sapiens)
chain: MDHHQPGTGRYQVLLNEEDNSESSAIEQPPTSNPAPQIVQAASSAPALETDSSPPPYSSITVEVPTTSDTEVYGEFYPVPPPYSVATSLPTYDEAEKAKAAAMAAAAAETSQRIQEEECPPRDDFSDADQLRVGNDGIFMLAFFMAFIFNWLGFCLSFCITNTIAGRYGAICGFGLSLIKWILIVRFSDYFTGYFNGQYWLWWIFLVLGLLLFFRGFVNYLKVRNMSESMAAAHRTRYFFLL
B3: 28 (protein, listed as Homo sapiens)
chain: MTSFEDADTEETVTCLQMTVYHPGQLQCGIFQSISFNREKLPSSEVVKFGRNSNICHYTFQDKQVSRVQFSLQLFKKFNSSVLSFEIKNMSKKTNLIVDSRELGYLNKMDLPYRCMVRFGEYQFLMEKEDGESLEFFETQFILSPRSLLQENNWPPHRPIPEYGTYSLCSSQSSSPTEMDENES
B4: 6 (protein, listed as Homo sapiens)
chain: MEGPGLGSQCRNHSHGPHPPGFGRYGICAHENKELANAREALPLIEDSSNCDIVKATQYGIFERCKELVEAGYDVRQPDKENVSLLHWAAINNRLDLVKFYISKGAVVDQLGGDLNSTPLHWAIRQGHLPMVILLLQHGADPTLIDGEGFSSIHLAVLFQHMPIIAYLISKGQSVNMTDVNGQTPLMLSAHKVIGPEPTGFLLKFNPSLNVVDKIHQNTPLHWAVAAGNVNAVDKLLEAGSSLDIQNVKGETPLDMALQNKNQLIIHMLKTEAKMRANQKFRLWRWLQKCELFLLLMLSVITMWAIGYILDFNSDSWLLKGCLLVTLFFLTSLFPRFLVGYKNLVYLPTAFLLSSVFWIFMTWFILFFPDLAGAPFYFSFIFSIVAFLYFFYKTWATDPGFTKASEEEKKVNIITLAETGSLDFRTFCTSCLIRKPLRSLHCHVCNCCVARYDQHCLWTGRCIGFGNHHYYIFFLFFLSMVCGWIIYGSFIYLSSHCATTFKEDGLWTYLNQIVACSPWVLYILMLATFHFSWSTFLLLNQLFQIAFLGLTSHERISLQKQSKHMKQTLSLRKTPYNLGFMQNLADFFQCGCFGLVKPCVVDWTSQYTMVFHPAREKVLRSV
B5: 16 (protein, listed as Homo sapiens)
chain: MSSLGGGSQDAGGSSSSSTNGSGGSGSSGPKAGAADKSAVVAAAAPASVADDTPPPERRNKSGIISEPLNKSLRRSRPLSHYSSFGSSGGSGGGSMMGGESADKATAAAAAASLLANGHDLAAAMAVDKSNPTSKHKSGAVASLLSKAERATELAAEGQLTLQQFAQSTEMLKRVVQEHLPLMSEAGAGLPDMEAVAGAEALNGQSDFPYLGAFPINPGLFIMTPAGVFLAESALHMAGLAEYPMQGELASAISSGKKKRKRCGMCAPCRRRINCEQCSSCRNRKTGHQICKFRKCEELKKKPSAALEKVMLPTGAAFRWFQ
B6: 26 (protein, listed as Homo sapiens)
chain: MALALAALAAVEPACGSRYQQLQNEEESGEPEQAAGDAPPPYSSISAESAAYFDYKDESGFPKPPSYNVATTLPSYDEAERTKAEATIPLVPGRDEDFVGRDDFDDADQLRIGNDGIFMLTFFMAFLFNWIGFFLSFCLTTSAAGRYGAISGFGLSLIKWILIVRFSTYFPGYFDGQYWLWWVFLVLGFLLFLRGFINYAKVRKMPETFSNLPRTRVLFIY
B7: 154 (protein, listed as Homo sapiens)
chain: MAPAGCCCCCCFWGGAVAAAGAARRVLLLLLLGVLSARLRPGALATEHYSPLSLLKQELQHRQQQEAPAGGGGCSPQSGDWGDQYSAECGESSFLNFHDSDCEPKGSSPCDSLLSLNTEKILSQAKSIAEQKRFPFATDNDSTNEELAIAYVLIGSGLYDEAIRHFSTMLQILSPLGRINEAVNDLTKAIQLQPSARLYRHRGTLYFISEDYATAHEDFQQSLELNKNQPIAMLYKGLTFFHRGLLKEAIESFKEALKQKVDFIDAYKSLGQAYRELGNFEAATESFQKALLLNQNHVQTLQLRGMMLYHHGSLQEALKNFKRCLQLEPYNEVCQYMKGLSHVAMGQFYEGIKAQTKVMLNDPLPGQKASPEYLKVKYLREYSRYLHAHLDTPLTEYNIDVDLPGSFKDHWAKNLPFLIEDYEEQPGLQPHIKDVLHQNFESYKPEVQELICVADRLGSLMQYETPGFLPNKRIHRAMGLAALEVMQAVQRTWTNSKVRMNGKTRLMQWRDMFDIAVKWRRIADPDQPVLWLDQMPARSLSRGFNNHINLIRGQVINMRYLEYFEKILHFIKDRILVYHGANNPKGLLEVREALEKVHKVEDLLPIMKFNTKTKDGFTVNTKVPSLKDQGKEYDGFTITITGDKVGNILFSVETQTTEERTQLYHAEIDALYKDLTAKGKVLILSSEFGEADAVCNLILSLVYYFYNLMPLSRGSSVIAYSVIVGALMASGKEVAGKIPKGKLVDFEAMTAPGSEAFSKVAKSWMNLKSISPSYKTLPSVSETFPTLRSMIEVLNTDSSPRCLKKL

Test system: MAP kinase cascade activation
Test: Reporter activity reflecting MAP kinase cascade activation, corrected using an internal control (Elk1-GAL4 luciferase reporter in 293-EBNA cells)
Type: cell-based, human
Conditions: 25 ng/well expression plasmid; 293-EBNA cells; 24 hours
Method: (in the presence of 5% CO2). […] The method used for introduction was in accordance with the attached protocol. After culturing for 24 hours at 37° C., reporter activity (firefly luciferase acitivity), which reflects MAP kinase cascade activation, and reporter activity being the internal control (sea pansy luciferase) were measured using Picagene Dual (purchased from Toyo Ink Manufacturing) in accordance with the manufacturer's instructions.
Luciferase activity was measured with Perkin Elmer's Wallac ARVOTMST 1420 MULTILABEL COUNTER.
Reporter activity where an expression plasmid comprising the above gene was introduced, which reflects MAP kinase cascade activation corrected with internal control reporter activity, is shown in Table 1, which is expressed as a factor of the same reporter activity where a null vector was introduced (S/B value).

Molecule	Reporter activity corrected with internal control, as a factor of null vector (S/B value)
B1	1.8
B2	2.1
B3	1.8
B4	2.1
B5	3.4
B6	1.6

Same assay, conditions: 50 ng/well expression plasmid; 293-EBNA cells; 24 hours

Molecule	Reporter activity corrected with internal control, as a factor of null vector (S/B value)
B1	2.3
B2	2.7
B3	2.3
B4	2.4
B5	8.4
B6	3.2

Same assay, conditions: 100 ng/well expression plasmid; 293-EBNA cells; 24 hours

Molecule	Reporter activity corrected with internal control, as a factor of null vector (S/B value)
B1	2.9
B2	3.9
B3	2.9
B4	2.9
B5	8.1
B6	4.1

Same assay, conditions: plasmid 12.5 ng, 25 ng, 50 ng and 100 ng

Molecule	Dependence of corrected reporter activity on amount of expression plasmid
B1	increases that were dependent on the amount of expression plasmid
B2	increases that were dependent on the amount of expression plasmid
B3	increases that were dependent on the amount of expression plasmid
B4	increases that were dependent on the amount of expression plasmid
B7	increases that were dependent on the amount of expression plasmid
B5	increases that were dependent on the amount of expression plasmid
B6	increases that were dependent on the amount of expression plasmid
